Measured values reported in patent publication US20160251436A1 (PD 1 ACQUISITION GROUP, published 2016).
Residue numbers refer to the chain shown, from its start. Blank lines part the entries; values can stand above or below the molecule they belong to.

Legend:
[1] = target: human Programmed Death-1 (PD-1) expressed on the cell surface (human) (UniProt Q15116); assay: flow cytometry blocking assay: HEK293 cells expressing PD-1 incubated with 10 µg/ml isotype control, washed, stained with PD-L1-Ig Alexa-488; negative control of blocking
Chain of human Programmed Death-1 (PD-1) expressed on the cell surface (human) (Q15116 25-288): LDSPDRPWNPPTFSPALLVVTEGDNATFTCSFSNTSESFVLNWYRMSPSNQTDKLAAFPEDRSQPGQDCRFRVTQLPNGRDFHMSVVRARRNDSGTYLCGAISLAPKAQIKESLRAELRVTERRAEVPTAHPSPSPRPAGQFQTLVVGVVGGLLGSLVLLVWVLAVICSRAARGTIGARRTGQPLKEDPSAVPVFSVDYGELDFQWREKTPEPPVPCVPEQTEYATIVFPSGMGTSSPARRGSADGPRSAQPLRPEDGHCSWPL

[2] = target: T1, recombinant soluble extracellular domain (ECD) of CTLA4 (R&D Systems) (UniProt P16410 36-161, limits assumed); assay: ELISA, CTLA4 ECD coated on the plate, OD 450 nm; anti-CTLA4 as positive control
T1 construct: extracellular domain
T1 sequence (P16410 36-161 limits assumed): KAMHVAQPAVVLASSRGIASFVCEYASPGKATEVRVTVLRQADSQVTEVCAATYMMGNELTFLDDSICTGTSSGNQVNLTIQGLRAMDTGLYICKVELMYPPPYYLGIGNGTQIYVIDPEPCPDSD
Protocol: (§1) To assess selectivity of the anti-PD-1 antibodies, ELISA was used to generate dose response curves for binding of the anti-PD-1 antibodies to several immunomodulatory cell surface proteins. Recombinant soluble extracellular domains (ECDs) of ICOS (inducible T-cell costimulator), PD-1, CD28 or CTLA4 (R&D Systems, Minneapolis, Minn.) were coated onto ELISA assay plates. Binding of each anti-PD-1 antibody and each control antibody to each target protein was then assessed over a range of antibody concentrations (FIGS. 9A-9D).

[3] = target: T2, recombinant soluble extracellular domain (ECD) of PD-1 (R&D Systems) (UniProt Q15116 25-170); assay: ELISA, PD-1 ECD coated on the plate, antibody titrated from about 0.003 to about 13 nM, OD 450 nm
T2 construct: extracellular domain; also called PD-1 ECD
T2 sequence (Q15116 25-170): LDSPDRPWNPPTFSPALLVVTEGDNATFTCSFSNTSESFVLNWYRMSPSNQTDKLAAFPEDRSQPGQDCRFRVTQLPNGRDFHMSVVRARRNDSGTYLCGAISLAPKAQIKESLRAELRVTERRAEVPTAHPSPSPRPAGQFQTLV
Protocol: as §1

[4] = target: T3, human Programmed Death-1 (PD-1) expressed on the cell surface (human, UniProt Q15116 25-288); assay: cell-based or functional assay
T3 sequence (Q15116 25-288): as the sequence (Q15116 25-288) above

[5] = target: T4, recombinant soluble extracellular domain (ECD) of ICOS (inducible T-cell costimulator) (R&D Systems) (UniProt Q9Y6W8 21-140, limits assumed); assay: ELISA, ICOS ECD coated on the plate, OD 450 nm; anti-ICOS as positive control
T4 construct: extracellular domain
T4 sequence (looked up): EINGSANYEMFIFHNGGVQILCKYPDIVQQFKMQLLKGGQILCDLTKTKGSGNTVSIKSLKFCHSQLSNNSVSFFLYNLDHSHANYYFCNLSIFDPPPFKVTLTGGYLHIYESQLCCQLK
Protocol: as §1

[6] = target: T5, soluble extracellular domain of human PD-1 (human, UniProt Q15116 25-170); assay: BLI (ForteBio Octet Red), antibody on the biosensor, soluble PD-1 ECD as analyte
T5 construct: extracellular domain
T5 sequence (Q15116 25-170): as the sequence (Q15116 25-170) above
Protocol: Biophysical characteristics of certain anti-PD-1 antibodies were analyzed by biolayer interferometry (BLI), using the ForteBio Octet Red system (Pall Corporation, Menlo Park, Calif.). The antibodies were immobilized on BLI biosensors and then incubated with the soluble extracellular domain of human PD-1. Using standard biophysics methods, apparent on-rates and off-rates were then inferred for PD-1 with anti-PD-1 antibodies.

[7] = target: T6, recombinant soluble extracellular domain (ECD) of CD28 (R&D Systems) (UniProt P10747 19-152, limits assumed); assay: ELISA, CD28 ECD coated on the plate, OD 450 nm; anti-CD28 as positive control
T6 construct: extracellular domain
Protocol: as §1

[8] = target: human Programmed Death-1 (PD-1) expressed on the cell surface (human) (UniProt Q15116); assay: flow cytometry blocking assay: HEK293 cells expressing PD-1 incubated with 10 µg/ml antibody, washed, stained with PD-L1-Ig Alexa-488 as the blocked ligand
[9] = target: recombinant soluble extracellular domain (ECD) of PD-1 (R&D Systems) (UniProt Q15116); assay: ELISA, PD-1 ECD coated on the plate, antibody titrated from about 0.003 to about 13 nM, OD 450 nm
Chain of recombinant soluble extracellular domain (ECD) of PD-1 (R&D Systems) (UniProt Q15116) (Q15116 25-170): as above

[10] = target: human Programmed Death-1 (PD-1) expressed on the cell surface (human) (UniProt Q15116); assay: cell-based or functional assay
[11] = target: T3, human Programmed Death-1 (PD-1) …; assay: cell-based or functional assay; remark: listed apart in the source
[12] = target: T3, human Programmed Death-1 (PD-1) …; assay: cell-based or functional assay; remark: listed apart in the source
[13] = target: T3, human Programmed Death-1 (PD-1) …; assay: cell-based or functional assay; remark: listed apart in the source

Molecule: isotype control mouse IgG1 (antibody)
- percent of cells in gate Alexa Fluor 488-A+ (PD-L1-Ig staining after the antibody) [1]: 37.6%
- percent of cells in gate Alexa Fluor 488-A- (PD-L1-Ig staining after the antibody) [1]: 62.4%

B4: 100244_C8VH3_100245_C8VK5 (antibody, V domains shown)
VH: EVQLQESGPELVRPGASVKMSCKASGYTFTSYWMHWVKQRPGQGLEWIGMIDPSNSETSLNQKFKDKATLNVDKSTNTAYMQLSSLTSEDSAVYYCARSRGNYAYEMDYWGQGTSVTVSS
VL: DIVITQTTAIMSASPGEKVTLTCSASSSVSSNYLYWYQQRPGSSPKLWIYSTSNLASGVPARFSGSGSGTSYSLTISSMEAEDAASYFCHQWSSYPPTFGSGTKLEIK
notes: Mouse variable regions; cloned into pFUSE-CHIg-mG1 (murine IgG1 Fc), expressed in HEK293
- binding result [2]: no binding (tested: about 13 nM)
- EC50 (read off the curve) [3]: ~0.03 nM
- CD4 IFNγ % positive [4]: 9.64 % positive
- CD8 IFNγ % positive [4]: 19.9 % positive
- CD8 TNFα % positive [4]: 14.5 % positive
- binding result [5]: no binding (tested: about 13 nM)
- Kd [6]: 15.1 nM
- koff [6]: 0.00322 s⁻¹
- kon [6]: 213000 M⁻¹ s⁻¹
- binding result [7]: no binding (tested: about 13 nM)

B5: 244C8-2 (100244_C8_HC1 + 100245_C8_LC3) (antibody, V domains shown)
VH: QVQLVQSGAEVKKPGASVKVSCKASGYTFTSYWMHWVRQAPGQGLEWMGMIDPSNSETSLNQKFQGRVTMTVDKSTNTVYMELSSLRSEDTAVYYCARSRGNYAYEMDYWGQGTLVTVSS
VL: DIVLTQSPGTLSLSPGEKVTLSCRASSSVSSNYLYWYQQKPGQAPRLVIYSTSNLATGIPDRFSGSGSGTDYTLTISRLEPEDFAVYFCHQWSSYPPTFGQGTKVEIK
- Fold Induction IFN-γ (relative to isotype control; NSCLC biopsy cells, 20 µg/mL) [11]: 7.76 fold
- Fold Induction IFN-γ (relative to anti-CD3 + anti-CD28 only; antibody at 5 ug/mL) [12]: 2.66 fold
- Fold Induction IFN-γ (relative to anti-CD3 + anti-CD28 only; antibody at 10 ug/mL) [12]: 2.81 fold
- Fold Induction IFN-γ (normalized to nivolumab; 20 µg/mL total antibody) [13]: 1.77 fold

Second part, led by results:

- binding result [2]: no binding (tested: about 13 nM)
- EC50 (read off the curve) [3]: ~0.05 nM
- binding result [5]: no binding (tested: about 13 nM)
- Kd [6]: 2.69 nM
- koff [6]: 0.000999 s⁻¹
- kon [6]: 371000 M⁻¹ s⁻¹
- binding result [7]: no binding (tested: about 13 nM)
B1: 100388_D4VH3_100389_D4VK5 (antibody, V domains shown)
VH: EVQLQESGAELVRPGASVTLSCKASGYTFTDYEMHWVKQTPVHGLEWIGVIDPGTGGTAYNQKFKVKALLTADKSSNTAYMELRSLTSEDSAVYYCTSEKFGSNYYFDYWGQGTTLTVSS
VL: DIVITQTPLSLPVSLGDQASISCRSSQTIVHSDGNTYLEWYLQKPGQSPKLLIYKVSNRFSGVPDRFSGSGSGTDFTLKISRVEAEDLGVYYCFQGSHVPLTFGAGTKLEIK
notes: as for B4
- CD4 IFNγ % positive [4]: 21.2 % positive
- CD8 IFNγ % positive [4]: 31.2 % positive
- CD8 TNFα % positive [4]: 8.56 % positive

- binding result [2]: no binding (tested: about 13 nM)
- EC50 (read off the curve) [3]: ~0.06 nM
- binding result [5]: no binding (tested: about 13 nM)
- Kd [6]: 58.9 nM
- koff [6]: 0.0299 s⁻¹
- kon [6]: 507000 M⁻¹ s⁻¹
- binding result [7]: no binding (tested: about 13 nM)
B2: 100413_E1VH9_100414_E1VK5 (antibody, V domains shown)
VH: EVQLQESGPSLVQPSQSLSITCTVSGFSLTSYGVHWVRQSPGKGLEWLGVIWRGGNTDYNAAFMSRLSITKDNSKSQVFFKMNSLQADDTAIYYCAASMIGGYWGQGTTLTVSS
VL: B1 VL with I4L, T28S, D33N, D75N, I111L
notes: as for B4
- CD4 IFNγ % positive [4]: 20.2 % positive
- CD8 IFNγ % positive [4]: 27 % positive
- CD8 TNFα % positive [4]: 11.1 % positive

- EC50 (read off the curve) [9]: 0.02 nM
B3: mouse anti-PD-1 cl. EH12.2H7 (antibody, from another filing, V domains shown)
VH: QVQLQQSGAELAKPGASVQMSCKASGYSFTSSWIHWVKQRPGQGLEWIGYIYPSTGFTEYNQKFKDKATLTADKSSSTAYMQLSSLTSEDSAVYYCARWRDSSGYHAMDYWGQGTSVTVSS
VL: DIVLTQSPASLTVSLGQRATISCRASQSVSTSGYSYMHWYQQKPGQPPKLLIKFGSNLESGIPARFSGSGSGTDFTLNIHPVEEEDTATYYCQHSWEIPYTFGGGTKLEIK
- percent of cells in gate Alexa Fluor 488-A+ (PD-L1-Ig staining after the antibody) [8]: 10.3%
- percent of cells in gate Alexa Fluor 488-A- (PD-L1-Ig staining after the antibody) [8]: 89.7%
- CD4 IFNγ % positive [10]: 12.8 % positive
- CD8 IFNγ % positive [10]: 19.5 % positive
- CD8 TNFα % positive [10]: 14.1 % positive

- binding result [2]: no binding (tested: about 13 nM)
- EC50 (read off the curve) [3]: ~0.04 nM
- binding result [5]: no binding (tested: about 13 nM)
- Kd [6]: 76.4 nM
- koff [6]: 0.0123 s⁻¹
- kon [6]: 161000 M⁻¹ s⁻¹
- binding result [7]: no binding (tested: about 13 nM)
B6: 100246_A10VH1_100247_A10VK3 (antibody, V domains shown)
VH: EVQLQESGPGLVKPSQSLSLTCTVTGYSITSDYAWNWIRQFPGNKLEWMGYITYSGSPTYNPSLKSQFSITRDTSKNQFFLQLNSLTTEDTATYYCARGLGGHYFDYWGQGTTLTVSS
VL: DIVLTQSPDTLSVTPGDRVSLSCRASQSISDYLHWYQQKSHESPRLLIKYASQSISGIPSRFSGSGSGSDFTLSINSVEPEDVGVYYCQNGHSYPYTFGGGTKLELK
notes: as for B4
- CD4 IFNγ % positive [4]: 20.3 % positive
- CD8 IFNγ % positive [4]: 26.2 % positive
- CD8 TNFα % positive [4]: 14.9 % positive
